From patent publication US6441131

Assays:
peptide of Example 2(63) = biological target: T1, peptide of Example 2(63)
T1 chain: PNNLSEXX

peptide of Example 2(22) = biological target: T2, peptide of Example 2(22) (not fully specified)
T2 chain: PQQNXX

peptide of Example 2(25) = biological target: T3, peptide of Example 2(25)
T3 chain: PQQMXX

[1] = biological target: T4, Nα-Me-GlyLeuSerGluAla(2-Naph)Ala-pNA.TFMSA
T4 chain: GLSEXX

peptide of Example 2(61) = biological target: T5, peptide of Example 2(61)
T5 chain: KNLSEXX

peptide of Example 2(45) = biological target: T6, peptide of Example 2(45)
T6 chain: PTSEXX

peptide of Example 2(11) = biological target: T7, peptide of Example 2(11)
T7 chain: PQQAXX

peptide of Example 2(57) = biological target: T8, peptide of Example 2(57)
T8 chain: TLSEXX

peptide of Example 2(18) = biological target: T9, peptide of Example 2(18)
T9 chain: APQQAXX

peptide of Example 2(3) = biological target: T10, peptide of Example 2(3)
T10 chain: PQQAXX

peptide of Example 2(33) = biological target: T11, peptide of Example 2(33)
T11 chain: PQEEXX

peptide of Example 2(7) = biological target: T12, peptide of Example 2(7)
T12 chain: PQQAXX

peptide of Example 2(78) = biological target: T13, peptide of Example 2(78)
T13 chain: LSEXAX

[2] = biological target: T14, Nα-Me-GlySerGlyAla(2-Naph)AlaAla-DCHA.TFMSA
T14 chain: GSGXAX

peptide of Example 2(36) = biological target: T15, peptide of Example 2(36)
T15 chain: PNSEXX

peptide of Example 2(83) = biological target: T16, peptide of Example 2(83)
T16 chain: GLSEXAX

peptide of Example 2(16) = biological target: T17, peptide of Example 2(16)
T17 chain: NPQQAXX

peptide of Example 2(24) = biological target: T18, peptide of Example 2(24)
T18 chain: PQQGXX

peptide of Example 2(39) = biological target: T19, peptide of Example 2(39)
T19 chain: PMSEXX

peptide of Example 2(34) = biological target: T20, peptide of Example 2(34)
T20 chain: PQDEXX

peptide of Example 2(56) = biological target: T21, peptide of Example 2(56)
T21 chain: SLSEXX

peptide of Example 2(80) = biological target: T22, peptide of Example 2(80)
T22 chain: LSEXAX

peptide of Example 2(69) = biological target: T23, peptide of Example 2(69)
T23 chain: XLSEXX

peptide of Example 2(51) = biological target: T24, peptide of Example 2(51)
T24 chain: GLSEXX

peptide of Example 2(23) = biological target: T25, peptide of Example 2(23)
T25 chain: PQQQXX

peptide of Example 2(54) = biological target: T26, peptide of Example 2(54)
T26 chain: KLSEXX

peptide of Example 2(14) = biological target: T27, peptide of Example 2(14)
T27 chain: KPQQAXX

[3] = biological target: T28, ProLeuSerGluAla(2-Naph)Ala-pNA
T28 chain: PLSEXX

peptide of Example 2(53) = biological target: T29, peptide of Example 2(53)
T29 chain: QLSEXX

B1: human pepsin II (protein)
chain: SVTYEPMAYMDAAYFGEISIGTPPQNFLVLFDTGSSNLWVPSVYCQSQACTSHSRFNPSESSTYSTNGQTFSLQYGSGSLTGFFGYDTLTVQSIQVPNQEFGLSENEPGTNFVYAQFDGIMGLAYPALSVDEATTAMQGMVQEGALTSPVFSVYLSNQQGSSGGAVVFGGVDSSLYTGQIYWAPVTQELYWQIGIEEFLIGGQASGWCSEGCQAIVDTGTSLLTVPQQYMSALLQATGAQEDEYGQFLVNCNSIQNLPSLTFIINGVEFPLPPSSYILSNNGYCTVGVEPTYLSSQNGQPLWILGDVFLRSYYSVYDLGNNRVGFATAA
pepsin II digesting rate (µM/min · 1 µg Enz) (peptide of Example 2(63)): 29.8 | ration of digesting rate (pepsin II/ pepsin I) (peptide of Example 2(63)): 169 | pepsin II digesting rate (µM/min · 1 µg Enz) (peptide of Example 2(22)): 12.9 | ration of digesting rate (pepsin II/ pepsin I) (peptide of Example 2(22)): 223 | pepsin II digesting rate (µM/min · 1 µg Enz) (peptide of Example 2(25)): 5.56 | ration of digesting rate (pepsin II/ pepsin I) (peptide of Example 2(25)): 890 | pepsin II digesting rate (µM/min · 1 µg Enz) [1]: 49.6 | ration of digesting rate (pepsin II/ pepsin I) [1]: 158 | pepsin II digesting rate (µM/min · 1 µg Enz) (peptide of Example 2(61)): 36.8 | ration of digesting rate (pepsin II/ pepsin I) (peptide of Example 2(61)): 219 | pepsin II digesting rate (µM/min · 1 µg Enz) (peptide of Example 2(45)): 40.5 | ration of digesting rate (pepsin II/ pepsin I) (peptide of Example 2(45)): 161 | pepsin II digesting rate (µM/min · 1 µg Enz) (peptide of Example 2(11)): 4.1 | ration of digesting rate (pepsin II/ pepsin I) (peptide of Example 2(11)): 175 | pepsin II digesting rate (µM/min · 1 µg Enz) (peptide of Example 2(57)): 18.8 | ration of digesting rate (pepsin II/ pepsin I) (peptide of Example 2(57)): 661 | pepsin II digesting rate (µM/min · 1 µg Enz) (peptide of Example 2(18)): 9.2 | ration of digesting rate (pepsin II/ pepsin I) (peptide of Example 2(18)): 757 | pepsin II digesting rate (µM/min · 1 µg Enz) (peptide of Example 2(3)): 4.23 | ration of digesting rate (pepsin II/ pepsin I) (peptide of Example 2(3)): 2070 | pepsin II digesting rate (µM/min · 1 µg Enz) (peptide of Example 2(33)): 25.4 | ration of digesting rate (pepsin II/ pepsin I) (peptide of Example 2(33)): 402 | pepsin II digesting rate (µM/min · 1 µg Enz) (peptide of Example 2(7)): 3.5 | ration of digesting rate (pepsin II/ pepsin I) (peptide of Example 2(7)): 104 | pepsin II digesting rate (µM/min · 1 µg Enz) (peptide of Example 2(78)): 54.4 | ration of digesting rate (pepsin II/ pepsin I) (peptide of Example 2(78)): 20.7 | pepsin II digesting rate (µM/min · 1 µg Enz) [2]: 33.1 | ration of digesting rate (pepsin II/ pepsin I) [2]: 120 | pepsin II digesting rate (µM/min · 1 µg Enz) (peptide of Example 2(36)): 21.2 | ration of digesting rate (pepsin II/ pepsin I) (peptide of Example 2(36)): 194 | pepsin II digesting rate (µM/min · 1 µg Enz) (peptide of Example 2(83)): 70.7 | ration of digesting rate (pepsin II/ pepsin I) (peptide of Example 2(83)): 29.9 | pepsin II digesting rate (µM/min · 1 µg Enz) (peptide of Example 2(16)): 8.95 | ration of digesting rate (pepsin II/ pepsin I) (peptide of Example 2(16)): 1090 | pepsin II digesting rate (µM/min · 1 µg Enz) (peptide of Example 2(24)): 12.1 | ration of digesting rate (pepsin II/ pepsin I) (peptide of Example 2(24)): 2080 | pepsin II digesting rate (µM/min · 1 µg Enz) (peptide of Example 2(39)): 45.8 | ration of digesting rate (pepsin II/ pepsin I) (peptide of Example 2(39)): 201 | pepsin II digesting rate (µM/min · 1 µg Enz) (peptide of Example 2(34)): 15.4 | ration of digesting rate (pepsin II/ pepsin I) (peptide of Example 2(34)): 712 | pepsin II digesting rate (µM/min · 1 µg Enz) (peptide of Example 2(56)): 10.9 | ration of digesting rate (pepsin II/ pepsin I) (peptide of Example 2(56)): 563 | pepsin II digesting rate (µM/min · 1 µg Enz) (peptide of Example 2(80)): 15.8 | ration of digesting rate (pepsin II/ pepsin I) (peptide of Example 2(80)): 105 | pepsin II digesting rate (µM/min · 1 µg Enz) (peptide of Example 2(69)): 73.1 | ration of digesting rate (pepsin II/ pepsin I) (peptide of Example 2(69)): 74.2 | pepsin II digesting rate (µM/min · 1 µg Enz) (peptide of Example 2(51)): 54.4 | ration of digesting rate (pepsin II/ pepsin I) (peptide of Example 2(51)): 334 | pepsin II digesting rate (µM/min · 1 µg Enz) (peptide of Example 2(23)): 5.9 | ration of digesting rate (pepsin II/ pepsin I) (peptide of Example 2(23)): 309 | pepsin II digesting rate (µM/min · 1 µg Enz) (peptide of Example 2(54)): 48.4 | ration of digesting rate (pepsin II/ pepsin I) (peptide of Example 2(54)): 177 | pepsin II digesting rate (µM/min · 1 µg Enz) (peptide of Example 2(14)): 3.85 | ration of digesting rate (pepsin II/ pepsin I) (peptide of Example 2(14)): 410 | pepsin II digesting rate (µM/min · 1 µg Enz) [3]: 55.4 | ration of digesting rate (pepsin II/ pepsin I) [3]: 198 | pepsin II digesting rate (µM/min · 1 µg Enz) (peptide of Example 2(53)): 62 | ration of digesting rate (pepsin II/ pepsin I) (peptide of Example 2(53)): 621

B2: human pepsin I (protein)
chain: VDEQPLENYLDMEYFGTIGIGTPAQDFTVVFDTGSSNLWVPSVYCSSLACTNHNRFNPEDSSTYQSTSETVSITYGTGSMTGILGYDTVQVGGISDTNQIFGLSETEPGSFLYYAPFDGILGLAYPSISSSGATPVFDNIWNQGLVSQDLFSVYLSADDQSGSVVIFGGIDSSYYTGSLNWVPVTVEGYWQITVDSITMNGEAIACAEGCQAIVDTGTSLLTGPTSPIANIQSDIGASENSDGDMVVSCSAISSLPDIVFTINGVQYPVPPSAYILQSEGSCISGFQGMNLPTESGELWILGDVFIRQYFTVFDRANNQVGLAPVA
pepsin I digesting rate (µM/min · 1 µg Enz) (peptide of Example 2(63)): 0.176 | pepsin I digesting rate (µM/min · 1 µg Enz) (peptide of Example 2(22)): 0.0578 | pepsin I digesting rate (µM/min · 1 µg Enz) (peptide of Example 2(25)): 0.0063 | pepsin I digesting rate (µM/min · 1 µg Enz) [1]: 0.313 | pepsin I digesting rate (µM/min · 1 µg Enz) (peptide of Example 2(61)): 0.168 | pepsin I digesting rate (µM/min · 1 µg Enz) (peptide of Example 2(45)): 0.251 | pepsin I digesting rate (µM/min · 1 µg Enz) (peptide of Example 2(11)): 0.0235 | pepsin I digesting rate (µM/min · 1 µg Enz) (peptide of Example 2(57)): 0.0284 | pepsin I digesting rate (µM/min · 1 µg Enz) (peptide of Example 2(18)): 0.0122 | pepsin I digesting rate (µM/min · 1 µg Enz) (peptide of Example 2(3)): 0.002 | pepsin I digesting rate (µM/min · 1 µg Enz) (peptide of Example 2(33)): 0.0632 | pepsin I digesting rate (µM/min · 1 µg Enz) (peptide of Example 2(7)): 0.0335 | pepsin I digesting rate (µM/min · 1 µg Enz) (peptide of Example 2(78)): 2.62 | pepsin I digesting rate (µM/min · 1 µg Enz) [2]: 0.277 | pepsin I digesting rate (µM/min · 1 µg Enz) (peptide of Example 2(36)): 0.11 | pepsin I digesting rate (µM/min · 1 µg Enz) (peptide of Example 2(83)): 2.37 | pepsin I digesting rate (µM/min · 1 µg Enz) (peptide of Example 2(16)): 0.0082 | pepsin I digesting rate (µM/min · 1 µg Enz) (peptide of Example 2(24)): 0.0058 | pepsin I digesting rate (µM/min · 1 µg Enz) (peptide of Example 2(39)): 0.228 | pepsin I digesting rate (µM/min · 1 µg Enz) (peptide of Example 2(34)): 0.0216 | pepsin I digesting rate (µM/min · 1 µg Enz) (peptide of Example 2(56)): 0.0194 | pepsin I digesting rate (µM/min · 1 µg Enz) (peptide of Example 2(80)): 0.15 | pepsin I digesting rate (µM/min · 1 µg Enz) (peptide of Example 2(69)): 0.985 | pepsin I digesting rate (µM/min · 1 µg Enz) (peptide of Example 2(51)): 0.163 | pepsin I digesting rate (µM/min · 1 µg Enz) (peptide of Example 2(23)): 0.0191 | pepsin I digesting rate (µM/min · 1 µg Enz) (peptide of Example 2(54)): 0.274 | pepsin I digesting rate (µM/min · 1 µg Enz) (peptide of Example 2(14)): 0.0094 | pepsin I digesting rate (µM/min · 1 µg Enz) [3]: 0.28 | pepsin I digesting rate (µM/min · 1 µg Enz) (peptide of Example 2(53)): 0.0998
